Positions of bridges follow the written chain, without caps; N, C: chain ends. Residues, ends and D or L forms follow the SMILES beside them. Groups on a side chain read outwards from the residue. *: point of attachment. NOTA = O=C(O)CN1CCN(CC(=O)O)CCN(CC(=O)*)CC1; AEEA = NCCOCCOCC(=O)O
Legend:
[1] = rat, in vivo, iv
Method: The rats were subcutaneously injected with 50 µL turpentine oil (Sigma-Aldrich) into the right shoulder area (foreleg) to induce skin/muscle inflammation, which was allowed to develop for 24 h prior to PET imaging. For imaging and ex vivo analysis, the rats were anesthetized using isoflurane and intravenously injected with 17.7 ± 3.4 MBq of one of the two radiotracers via the tail vein cannula. Immediately after injection a dynamic 60-min PET scan was performed on four rats for [^68Ga]Ga-NOTA-Siglec-9 and four rats for [^18F]AlF-NOTA-Siglec-9. The data were acquired in list-mode and iteratively reconstructed with a 3-D ordered subsets expectation maximization algorithm with 8 iterations, 16 subsets, and a 2-mm full-width at half-maximum post-filter into 6 × 10 s, 4 × 60 s, 5 × 300 s, and 3 × 600 s time frames. After imaging, the rats were euthanized, and various tissues, including inflamed skin/muscle (inflamed area) from the right foreleg, skin from the left foreleg (control area), and healthy muscle from the left hind leg, were excised, weighed, and measured with a γ-counter. The ex vivo radioactivity measurements were decay-corrected from the time of injection, and the results were expressed as SUV. Plasma protein binding was measured from plasma samples taken from 60 min post-injections. […] Radioactivity of both the precipitate and the supernatant was measured by γ-counting.

[2] = format: physicochemical; conditions: pH 7.6
Method: The distribution coefficient (Log D) was measured by adding 5 kBq of tracer into a mixture of PBS (pH 7.6) and 1-octanol (1:1, v/v). The solution was mixed thoroughly for 5 min at room temperature. After separation of phases by centrifugation (12,000× g, 6 min), 100 µL aliquots of each phase layer were taken for γ-counting to determine Log D. The test was repeated three times. Log D was calculated as Log D=log10 counts per minute in octanol/counts per minute in PBS .

CC(C)C[C@@H]1NC(=O)CNC(=O)[C@H](CCCNC(=N)N)NC(=O)[C@H](Cc2c[nH]c3ccccc23)NC(=O)[C@H](CO)NC(=O)[C@H](CC(C)C)NC(=O)[C@H](CO)NC(=O)[C@H](CC(C)C)NC(=O)[C@H](CCCNC(=N)N)NC(=O)[C@H](C)NC(=O)[C@@H](N)CSSC[C@@H](C(=O)N2CCC[C@H]2C(=O)N[C@@H](CO)C(=O)N[C@@H](CCCCNC(=O)COCCOCCNC(=O)CN2CCN(CC(=O)O)CCN(CC(=O)O)CC2)C(=O)O)NC(=O)[C@H](CC(C)C)NC(=O)[C@H]([C@@H](C)O)NC1=O [[^68Ga]Ga-NOTA-Siglec-9] [metal not drawn] (H-CARLSLSWRGLTLCPSK([AEEA-NOTA])-OH; disulfide 1-14)
Plasma protein binding [1]: 31.4 ± 3.4%
Log D [2]: −3.2 ± 0.3
